Assay results taken from the nanobody polyreactivity screen of Harvey et al. (2022).

Experiment: yeast display, Sf9 membrane polyspecificity reagent, FACS + sequencing; frameworks hold sequencing errors
Outline: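 Polyreactivity labels are assigned by the sorting gate from which each nanobody was recovered. The gates were low and high (top ~1%), set on anti-HA fluorescence for expression and streptavidin fluorescence for reagent binding. Before sorting, galactose-induced (36–48 hours) yeast display cells were stained for 1 hour at 4 °C with 10% biotinylated, detergent-solubilized Sf9 membrane reagent.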

| Sequence | polyreactivity (PSR sort gate) |
| --- | --- |
| QVQLGESGGGLVQAGGSLRLSCAASGFTFHLYAMGWYRQAPGKERELVAAISQSGDSTYYADSVKGRFTISRDNAKNTVYLQMNSLKPDDTAVYYFNADNDGVVWSYPFDFDYWGQGTQVTVSS | low polyreactivity |
| QVQLGESGGGLVQAGGSLRLSCAASGGIFAENAIGRYRQAPGKERELVAAINGGGSTKYADSVKGRFTISRDNAKNTVYLQMNSLKPEDTAVYYCAADPSVPRQVDYWGQGTLVTVSS | low polyreactivity |
| QVQLGESGGGLVQAGGSLRLSCAASGGIFGKYAMGWYRQAPGKERELVAAISGGSRTNYADSVKGRFTISRDNAKNTVYLQMNSLKPEDTAVYYCAARYAYSAQRLYYWGQGTQVTVSS | high polyreactivity |
| QVQLGESGGGLVQAGGSLRLSCAASGIILHGYAMGWYRPAPGKEREFVATITLSGSSTYYADSVKGRFTISRDNAKNTVYLQMNSRKAEDTAVYYSAARTWVIVYGLQYDYWGHGTQVTVSS | high polyreactivity |
| QVQLGESGGGLVQAGGSLRLSCAASGITFTKYVMGWYRQAPGKERELVATIRWGASSTHYADSVKGRFTISRDNAKNTVYLQMNSLKPEDTAVYYCNADGWYGAVYWWFYGFDYWGQGTQVTVSS | low polyreactivity |
| QVQLGESGGGLVQAGGSLRLSCAASGLIFPRYAMGWYRQAPGKERELVAAITRGGSTYYADSVKGRFTISRDNAKNTVYVQMNSLKPEDSAVYYCNDELPVHWSWYDYWGQGTQVTVSS | low polyreactivity |
| QVQLGESGGGLVQAGGSLRLSCAASGRIFASNAMGWYRPAPGKESELVAAIDQSGGSTYYADSVKGRFTISRDNAKNTVYLQMNSLKPEDTAVYYCAARAYLISSSTPFWTGYDSWGQGTQVTVSS | low polyreactivity |
| QVQLGESGGGLVQAGGSLRLSCAASGRTFDKNAMGWYRQAPGKERELVATISSGGSTYYADSVKGRFTISRDNAKNTVYLQMNSLKPEDTAVYYCNARGVRATRRRYGYWGQGTQVTVSS | low polyreactivity |
| QVQLGESGGGLVQAGGSLRLSCAASGRTFGPYAMGWYRQAPGKERELVAAIRYIDDSTFYADSVKGRFTISRDTAKNTVYLQMNSLKPEDTAVYYCAARPYPHSAYEGDYWGRGTQVTVSS | low polyreactivity |
| QVQLGESGGGLVQAGGSLRLSCAASGRTFYWYTMGWYRQAPGKESELVAAISTRGVRTYYADSVKGRFTISRDNAKNTVYLQMNSLKPADTAVYYCNNYVAYDYWGQGTQVTVSS | low polyreactivity |
| QVQLGESGGGLVQAGGSLRLSCAASGRTLWFYAMGWYRQAPGKERELVAAISSGGSTNYGDSVKGRFTISRDNAKNTVYLQMNSLKPEDTAVYYCAKVGNIPYGTRYDSNRYDYWGQGTQVTVSS | low polyreactivity |
| QVQLGESGGGLVQAGGSLRLSCAASGSIFPDNTMGWYRPATGKEWELVAAIDGRGGTTYYADSVKGRFTISRDNAKNTVYLQMNSLKPEDTAVYYCARDIGHSARYDYWGQGTQVTVSS | low polyreactivity |
| QVQLGESGGGLVQAGGSLRLSCAASGSIFSDYAMGWYRQAPGKERELVAAIRYRGGRTYYADSVKGRFTISRDNAKNTVYLQMNSLKPEDTAVYYCNADVIRRGGSRYSTGREFDYWGQGTQVTVSS | high polyreactivity |
| QVQLGESGGGLVQAGGSLRLSCAASGSTFAKYAMGWYRQAPGKERELVAAISSSGTCTYYADSVKGRFTISRDNAKNTVYLQMNSRKPEDTAVYYCAASYRNRYIAFYYWGQGTQVTVSS | low polyreactivity |
| QVQLGESGGGLVQAGGSLRLSCAASGSTFDYYAMGWYRQAPGKERELVAGITSDGSTYYADSVKGRFTISRDNAKNTVYLQMNSLKPEDTAVYYCNKDSTGDGYEYWGQGTQVTVSS | low polyreactivity |
| QVQLGESGGGLVQAGGSLRLSCAASGSTFGRYVMGWYRQAPAKERELVDAISKNAGSTYYADSVKGRFTISRDIAKKTVYLQMNSLKPEDTAVYYCAADWRTKGYDSLGQGTQVTVSS | high polyreactivity |
| QVQLGESGGGLVQAGGSLRLSCAASGSTFTRYGMGWYRQAPGKERELVAAITTSGSSTYYADSVKGRFTISRDNAKNTVYLQMNSLKPEDTAVYYCAADWSSWGFDYWGQGTQVTVSS | low polyreactivity |
| QVQLGESGGGLVQAGGSLRLSCAPTGRTFVRNAIGWYRPAPGKERELVAAISYSGGSTTYADSVKGRFTISRDNAKNTVYLQMNSLKPADTAVYYCAKKPPVGEPSGREYWGQGTQVTVSS | low polyreactivity |
| QVQLGESGGGLVQAGGSLRLSCVASGFIFRGNAMGWYRQAPGKERELVATISSGGNTYYADSVKGRFTISRDNAKNTVYLQINSLKPEDTAVYYCNASDGLPTKLNVYVEFDYWGQGTQVTVSS | low polyreactivity |
| QVQLGESGGGLVQAGVSLRLSCAASGNTFYWNAMGWYRQAPGKERELVAAISTTGVSTYYADSVKGRFTISRDNAKNTVYLQMNSLKPEDTAVYYCAVDPPYSNPITINEDYWGQGTQVTVSS | low polyreactivity |
| QVQLGESGGGLVQSGGSLRLSCAASGIIFRNYAMGWYRPAPGKERELVATITGDGGSTYYADSVKGRFTISRDNAKNTVYFQMNSLKPEDTAVYYCAAEYHHYYYYWGEYWGQGTQVTVSS | low polyreactivity |
| QVQLGESGGGLVQSGGSLRLSCAASGYIFNHNAMGWYRQAPGKEWELVAGISIGGSTYYADSVKGRFTISRDNAKNTVYLQMNRLIPEDTAVYYCNTQPPLIYRGVKSDYSGQGTQVTVSS | low polyreactivity |

| Sequence | polyreactivity (PSR sort gate) |
| --- | --- |
| QVQLGESGGGVVQAGVSLRLSCAASGSTFTLYAMGWYRQAPGKERELVAAINGAGSTYYADSVKGRFTISRDNAKNTVYLQMNSLKPEDTAVYYCAKDLKYGWSDYWGQGTQVTVSS | low polyreactivity |
| QVQLGESGGSLVQAGASLRLSCAASAITFYGNAMGWYRQAPGKERELVAAIRRGGSTNYADSVKGRFTISRDNAKKTVYLQMNSLKPEDTAVYYCAADSYGYTFRNYRVGYWGHGTQVTVSS | high polyreactivity |
| QVQLGESGGVLVQAGGSLRLSCSASGSTFYSNAMGWYRQAPVKEREFVAAITGSGGSTYYADSVKGRFTISRDNAQNTVYLQMNSLKPEVTAVYYCAAGTRIYNSWIRFDYWGQGTQVTVSS | high polyreactivity |
| QVQLGESGGVLVQAGGSLSLSCAASGNIFGRYAMGWYRQAPGKEWELVAANTRSAGSTYYADSVKGRFTISRDNEKTTVYFQMNSLKPEDTAVYYCAAAHWGYAYRRYGYGGQGTQVTVSS | high polyreactivity |
| QVQLGESRGGLVQAVGSLSLSCAAYGFTYDKNAMGWYIQAPGNESALDAAINIRSTYYAESVKGRFTISRDNAKNTVYLQMNSMKPEDTAVYYCANEVPSGYWFNYYYWGQGTQVTVSS | low polyreactivity |
| QVQLGESVGGLVQAGGSLRLSCAASGSILFPYPMGWYRQAPGKERELVAAISWSGDSTRYADSVKGRFTISRDNAKNTVYLQMNSLKPEVTAVYYCATSSDATGTFAPMDSWGQGTQVTVSS | low polyreactivity |
| QVQLGETGGGLVQAGGSLRLICAASGSTFTINGMGWSRQAPGKDRELVAAITSGGSTYYADSVKGRFTISRDNAKNTVYLQMNSLKPEDTAVYFCAAADGRDYWGQGTQVTVSS | low polyreactivity |
| QVQLHESGGGLEQAGGSLRLSCAASGYISDIGTMGWYRQAPGKEREFVATIVVGSTTNYADSVKGRFTISRDNAKNSVYLQPESGRYRGVLLRGWLLAVGKFTYWGQGTQETVSS | low polyreactivity |
| QVQLHESGGGLVQAGGGLRLSCAASGSISSTGFMGWYRQAPGKEREPVAAIAPGTTTYYADSVKGRFTISRDNAKNTVYLQMNSLRPEDTAVYDCADFTDNRVAFLYWGQGTQVTVSS | low polyreactivity |
| QVQLHESGGGLVQAGGGLRLSCAASGSISSTGFMGWYRQPPGKEREPVAAIAPGTTTYYADSVKGRFTISRDNAKNTVYLQMISLRPEDTAVYYCAVFTDNRVAFLYWGQGTQVTVSS | low polyreactivity |
| QVQLHESGGGLVQAGGSLRLSCAASGTISVTYNMGWYRQAPGKEREFVAGNSTGATTNYADSVKDRFTISRDNAKNTLYLQMNRLKPEDTAVYYCAAHIYRQDHFYYWGQGTQVTVSS | low polyreactivity |
| QVQLHESGGGLVQAGGSLRLSCAASGTISYAGPMGWYRQAPGKEREFVAGIGVGSNTNYADSVKGRYTIIRDNAKNTVYLQMNSLKPVDTAVYYCAVGGYAPLGRPYWGQGTQVTVSS | low polyreactivity |
| QVQLHESGGGLVQAGGSLRLSCAASGTITYAGPMGWYRQAPGKEREFVAGIGVGSNTNYADSVKGRYTIIRDNAINTVYLEKNSLKPEDTPVYYCAVGGYAPLGRPYWGQVTQVTVSS | low polyreactivity |
| QVQLHESGGGLVQAGGSLRMSCAASGTISYAGPMGWYLQATGKESEFVAGIGVGSNTNYADSVKGRYTIIRDNAINTLYLQLNSLQPEDTAVYYGAVGGYAPLGRPYWGQGTQVTVRS | low polyreactivity |
| QVQLHESPGGLVLAGGSLRLSCAESGYISWSFTMGLYRKAPGKEREFVAGITYGGISYYADSVKGRFTISRDNAIITVYLQMNTLKPEDTAVYYCAAPQTNPYVYVYWGQGTQVTVSS | high polyreactivity |
| QVQLIESGGGLVQAGGSHRLSCAASGRIFAYYAMGWYRQAPGKERELVAGISQRGSRTYYADSVKGRFTISRDNAKNTVYLQMNSLKPEDTAVYYCAARDRRSVTMDYWGQGTQVTVSS | high polyreactivity |
| QVQLIESGGGLVQAGGSLRLSCAASGRIFYYNAMGWYRQAPGKERELVAVITRSGGSTYYADSVKGRFTISRDTAKNTVYLQMNSLKQEDTAVYYCAKTWKGGYGYDYWGQGTQVTVSS | low polyreactivity |
| QVQLIESGGGLVQAGGSLRLSCAASGRTFRRYAMGWYRQAPGKERELVAAIDASGGSTYYADSVMGRFTISRDTSKNTVYLQMTILKQEDSAVSYCNTCSGQLQLQGGRHEYWGQGTQVTVSS | high polyreactivity |
| QVQLKENGVGLVQAGGSLRMSCAASGYISHADEMGWNSQAPGKEHELVASISNGGSTNYADSVKGRFTISRDNAKNSVYLQMNSLKSEDTAVYYCAAWTGQVDINYYWGQGSQVTVSS | low polyreactivity |
| QVQLLDSGGGLVQAGCSLRLSCAASGLIFHRNAMGWYRQAPGKERELVAIISSGGGTTYYADSVKGRFTISRDNAKNTVYLQKNSLKPEDTAVYYCNARPRAYGSRGFDYWGQGTQVTVSS | high polyreactivity |
| QVQLLDSGGGLVQAGGSLRLSCAASGFTFDDYDKGWYRPPPGKERELVAAISWSGGSTYYADSVKGRFTISRDNAKNTVYLQMNSLKPEDTAVYYCAAERSYGGFDYWGQGTQVTVSS | low polyreactivity |
